Data reported in the DeepSol protein solubility set.

Assay: soluble on expression in E. coli; label from the status in PepcDB or PDB records

| Sequence | soluble on expression in E. coli |
| --- | --- |
| MHKIRVIESTLGYPQKNRMESESYEGVQTYMDMKDGSLIAVQPNKDDLMSQILSPDNLNRAYLQVVRNKGVGGVDRMDFKQLLPYLHEHKSELIESIRIGRYKPNSVRRVDIAKDNGKKRLIGIPTVVDRLIQQAIVQVLSPIYERQFSPSSFGFRPDVVRMLEHHHHHH | not soluble |
| MHKVVIVGRPNVGKSSLFNRLLKKRSAVVADVPGVTRDLKEGVVETDRGRFLLVDTGGLWSGDKWEKKIQEKVDRALEDAEVVLFAVDGRAELTQADYEVAEYLRRKGKPVILVATKVDDPKHELYLGPLYGLGFGDPIPTSSEHARGLEELLEAIWERLPVRQIETEPEVAGIRLAIVGRPNAGKSSLLNAILGEERVIVSEEPGTTRDAIDVEFFFGGQRFVLVDTAGIRKRPENLVEELAIRRSLRAMDEADVVLLVVDPFQVGDRELKLANEALDRGKPVLLVITKWDLVDKEDAPKMRRLLREKLAHLDHLPRVFTSALTRQNLDRIFREAVRLHELNQTRVPTAELNRWVAVWTSRVQMPNFKGKPLKILYATQPEVAPPTFVFFVNHPEFVTRAFENYLKNRIGEDLGLREVPFRLVFRGRREE | soluble |
| MHNKIVRIASSALTGGKLLEKLKPLTRWEVQWDPNKTKCLGITREVTFKDYETTWAFLTRVSMRSHLWGHHPLIHTSYTWVKLELHTHDIDPKDGAHSQLSDIDVRMAKRIDSYIDEMTT | not soluble |
| MHNNENVSGISAYLLGLIWGDGGLYKLKYKGNRSEYRVVITQKSENLIKQFIAPRMQFLIDELNVKSKIQIVKGDTRYELRVSSKKLYYYFANMLERIRLFNGNRFLAYLAGIVDGDGSIIAQIKPNQSYKFKHQLSLTFQVTQKTERRWFLDKLVDEIGVGYVRDRGSVSDYILSEIKPLHNFLTQLQPFLNFKQKQANLVLKIIEQLPSAKESPDKFLEVCTWVDQIAALNDSKTRKTTSETVRAVLDSLSEKKKSSP | soluble |
| MHPMNILLKLPLKIPLMIIEKAREILEKHPLCNHCLGRMFAKLGKGTNEERGKAIRLILSMELNREVKEPENCELCQGIFRRMNELLDLVRNAVEDYEFQTFQIGSRFPKDILEKEKKIWEEFGITTGEPINREFNRELGKLFAKVTGKIPNRERPDIVIIVEPFSSKVELQVNPIYVAGRYRKLVRGIPQTPAPGFEESIATIICRVFKKNFRGKCIFKGAGREDVDVRTLGRGRPFVVEIKKPRKRKVDLKLIEEEINSSGKVEVLELKFITPEESEKILTARHKKIYEALVYVKDGVSAEEVEKVVKSLKGSEIKQRTPRRVLNSRADIVRVRRVYNVSGEYIDEHHFKLKLVTDGGLYIKELISGDKGRTKPSVSEILGKEAWCEILDVLDVLDGDENVEGDS | soluble |
| MHPSLRYIQGYPQNIVEQVSSLVDNGKLIPWFEKRYPDRHQIKSEKALYEYAIAIKNRYMKKASPISKVVYDKKIHAVNNALGLHSVISRNHGGKLKSKNEIRIANVFKDAPEALLRMLVVHELAHTREKNHDKAFYQLCCYMEPEYHQLELDARLFMIYLDLKANSNEEQLEHHHHHH | soluble |
| MHQAPATSTDENPPIESDVPMHHVYPSHHHHQHYQLPHLQQHPHPYSYPLYTFPYPIAPAFHQAQNPPMTSSVASGANGEHHHQPQQFFAPQYQVIPAGAIPVSTINIDPSQICPVDQMGMWTLPPPTGPNGMRYGIPIPAPLVPQITSSIMEASKMTSSTHTNATILNAMTASTSSNDSSSESGVSGVKEAKDEKKKSKIQADEKLRHEERQSTSDYTDDDPIPFTSRRSITGSVSYNYAEQIAERRRVEQQQEDRERQEMLEVERQRRVLEDRRNSEEEIRKQAELDRVEKDRLRMEQAAAAMEKARKEAELAKRARIYKHVFRGAEEEGGTEQLEELEQKILGVDIETGRRLLKEVSEVEWHKKQDEAEIRKNAPPQSDRSAHNLSSLSSGNQSARGRSSSISSPCKPDTSFTRNSIGRRSVRTTSREKQQESPKSSDQAVQHPLAASTPVRRPPRQPQALPTQDEIHVAREVPLANKSTTPSPTRSEMLRSAAIYCPINRDPLSQREELRAINRSTSNTGAYHNNNNNNNSKFEGAGVSRYNEITQTALFGPIATRNSIRRGTMRGTGLPSPPSVRVSTQNHQNQQRTSSFDESSSGGEEGGSISPDLGHKNFESPLPSSTENVHPASNSPPMKQIEGFEFKTPTRARSALSSPMSNFMNGGDNDSPISRPASRLMQRLEQKGTIRRDDEIISQEIRRVAETNLSRSPSLASLRGSMSNLAFRASQLNLAGTSGELPPNLTKFASVNSPARQSLSSMKKTTDRQAAVLERLGRLRESLHAGKNYTPPRNGISSSSRITTPAQTPPISPRPVM | not soluble |
| MHRPEAEKWLRRFERAPDARARLVCLPHAGGSASFFFPLAKALAPAVEVLAVQYPGRQDRRHEPPVDSIGGLTNRLLEVLRPFGDRPLALFGHAMGAIIGYELALRMPEAGLPAPVHLFASGRRAPSRYRDDDVRGASDERLVAELRKLGGSDAAMLADPELLAMVLPAIRSDYRAVETYRHEPGRRVDCPVTVFTGDHDPRVSVGEARAWEEHTTGPADLRVLPGGHFFLVDQAAPMIATMTEKLAGPALTGSTGGNSLEHHHHHH | soluble |
| MHRVEETRRIAPEEGNPVLISQIKDASGNITVAVREEGGQARAVKGAASVYALAMEAANGGKSLADVVSAHGLGDAVDLDKAYAEGRFLPPITHPDPAHLHLTGTGLTHLGSAATRDSMHKKTTEAAEESLTDSMKMFRMGLENGKPKAGEKGVQPEWFYKGNGHVAAAPGAALTSPSFALDGGEEPEMAGIYVISDKGEAVRIGFAVSNEFSDHVTERVNYLYLAHSKLRPASFGPEIRVGAAPSDIRGTSRIRRGDKVIFEKPFVSGEDNMSHTFANLEYHHFKYGLFRAPGDVHVHMFGTATLSFAEGIKPEAGDVFEIEAAGFGLPLKNPLAVDSEEEIVVRQI | not soluble |
| MHSFPPLLLLLFWGVVSHSFPATLETQEQDVDLVQKYLEKYYNLKNDGRQVEKRRNSGPVVEKLKQMQEFFGLKVTGKPDAETLKVMKQPRCGVPDVAQFVLTEGNPRWEQTHLTYRIENYTPDLPRADVDHAIEKAFQLWSNVTPLTFTKVSEGQADIMISFVRGDHRDNSPFDGPGGNLAHAFQPGPGIGGDAHFDEDERWTNNFREYNLHRVAAHELGHSLGLSHSTDIGALMYPSYTFSGDVQLAQDDIDGIQAIYGRSQNPVQPIGPQTPKACDSKLTFDAITTIRGEVMFFKDRFYMRTNPFYPEVELNFISVFWPQLPNGLEAAYEFADRDEVRFFKGNKYWAVQGQNVLHGYPKDIYSSFGFPRTVKHIDAALSEENTGKTYFFVANKYWRYDEYKRSMDPGYPKMIAHDFPGIGHKVDAVFMKDGFFYFFHGTRQYKFDPKTKRILTLQKANSWFNCRKN | soluble |
| MHSMKLLVTGGMGFIGSNFIRYILEKHPDWEVINIDKLGYGSNPANLKDLEDDPRYTFVKGDVADYELVKELVRKVDGVVHLAAESHVDRSISSPEIFLHSNVIGTYTLLESIRRENPEVRFVHVSTDEVYGDILKGSFTENDRLMPSSPYSATKAASDMLVLGWTRTYNLNASITRCTNNYGPYQFPEKLIPKTIIRASLGLKIPIYGTGKNVRDWLYVEDHVRAIELVLLKGESREIYNISAGEEKTNLEVVKIILRLMGKGEELIELVEDRPGHDLRYSLDSWKITRDLKWRPKYTFDEGIKKTIDWYLKNEWWWKPLVDERILHPTPWKLKW | soluble |
| MHTFFVTSTGFGVGLTSTSLGLVRALEYGGLKAGFYKPVAQQHPGNSKLEYSTELISRTLGLAPPAPLPLATVEHLLGEGQIDDLMEDIVRRFKQASEGYDVMVVEGMVPTRHVSYASRVNTRLASSLDADIILVSSAEDDALQAITDRIEIQAQFFGGAQNPRLLGVILNKIRTDHSDDLFEQLKNHSTLFHQSSFQILGCIPWEDSLNAPRMADVVTQLQAQ | not soluble |
| MHTFILLLTVLCAGAYTQFTANGQAAILNVHNTLRSRIAKGTYVARGTVKHAASDMLKMKWLRSLATSSQIYANRCPTGHSNMIGVGENLYWYWTSGTITNIDQFGAMASAAWEKEFQDYGWSSNTLTMSLFNSGVGHATQMAWAKTNLIGCGVKNCGMDTNGMNKVAVVCHYQPQGNYLNQNIYTSGTTCSKCPAGTSCEAATGLCV | not soluble |
| MHTNMWVVDNVVERKKYYPQLQEAAKLLRENEAIAFPTETVYGLGANAMNDEAIAKIFEAKGRPSDNPLIVHIGTKSQLDGIVKEIPPVAEKLMEHFWPGPLTIILPRKEGISEKVTAGLHTVGVRMPDHPVALALIEEANVPVAAPSANRSGRPSPTLASHVYEDLNEKIAGIVDGGATGVGVESTVIDCTSAVPTILRPGGITKEQLEAVIGTVSLDPALKDEKEKPKSPGMKYTHYAPKAPLSIVEGSREFIQRLVDEKKEEGFKVGVLTTEEYHHIYNADVVLSCGVRSDLASVATKLYDVLRTFDASEVDVIFSESFPNEGIGNAIMNRLTKAAGHHIITE | not soluble |
| MHVLTLDLAPVTPKDAPLLHRVFHLSPSYFALIGMELPTLEDVVRDLQTLEVDPRRRAFLLFLGQEPVGYLDAKLGYPEAEDATLSLLLIREDHQGRGLGRQALERFAAGLDGVRRLYAVVYGHNPKAKAFFQAQGFRYVK | not soluble |
| MIAILTDKPNVGKEIARILGAHTREDGYMSGNGYMVTWTFGNMLSLAMPKDYGMDRPERGDFPINPAPFRLMVKHIKTDTGWIPDINAVLQLKVIEKVFDACESIIAATDASREGEMVFRYLYRYLECRKSYRRLWISSLTDEAVLEGMDNLRPGSLYDHMFLAADSRNKADWVLGLNASYALCQATGTGNNSLGRVQTPILAAISSRYRERENHIATDTFPVFISLCKNNTLLKMRCTEEFTDREAAARLYSDCKLAGHARVTAVSRQVREIEPPALYNLTELQKDANNYYGMTAGKSLEIAQKLYEKKLISYPRTAGRFLPRDVYDKLPRIMEKILNRKEFRPYVRSMGINIFDLPDKVVDEGQAAEHHAIIITDTYPEGLNREEMQLYMMIIGRMLEAFMPVCRAEYTTVDAVCAARNFRCHACRIIEKGWFGIFERESVIAGREYGFSPIPQLENGETAAVTGCSLIHRKDLTVSAYTDAELITYMDTAGLGTAATRTGILQTLIDRKYVRYSGKYIIPTRKGLYIYETVRNMKIAETALTSGWEAQLARMERGKLTQEEFMKGVLKLSREVTEDIFRKCER | not soluble |
| MIALDQHLTEHKKDITQQWLEVCTSNGSWLYSAKDQQKLGQKLKDQHELLVTIVAKSLRKEDVEDELNRWSLQCARDRAVHEVTVTQSFGQFNTFRHIMFEWIHKFSEASSQDISIQEFYEWSRILNQNIDEIIEVFTEEYHQVTMIQLNAQKEMINELSAPIMPITDGIGILPLVGEIDTHRARTILESVLEQCSALKLSYLFLDISGVPIVDTMVAYQIFKVIDSTKLLGIETIISGIRPEIAQTVVKLGLDFSNVKTEQSLAKALANKGFKIKEC | not soluble |
| MIALKMFYTEETYEQFFDYGLDYVIDASDTICYKIHLMKECLKRDIPLISSMGAANKTDPTRFQIADISKTHTDPIAKVVRTKLRKEGIKKGVQVIFSDESPIVIREDVRKEVGNDEAKIRKAKMPPSSNAFVPSVAGLIMGGHVVMDLLKDIEIKRVKDK | not soluble |
| MIANHVSLLIMGIDENQERQKEYNGAFHTDALLLATFNKDDKTVKLTSIPRDTYTYVPVEKKTDNITHAYGSGIVNNGKDGGPQASVEAVEQLLQVPVDYFVKFNFGSFTKIVDGLDGIEVDVPVEFTEQNSKDEPDAIHLKKGLQKLNGEEALALARTRHIDSDAMRGQRQQLVIESILSKLKSVGSITKLEKIVEAVDDDFKTNLVMDDILSFYKYGLNGSVEKIQLAGDDLYLPNGPNGQRVYYYNPNKKDLQSLSNTLRTHLGLSEKQIEENLEHHHHHH | soluble |
| MIATTSQQSFNLLRTLAVQKASDFADEFYIYMLKDQEASLFLSSQQVHDRLHGSMSKWIADILTNTGDSLADLINHQKKIGQIHARIGIPVDLVERGARRLKWHLYEHIAQVADDKALCFDAMRFASISMDIAIEIMSKTYSQSHDLEHHHHHH | not soluble |
